# According to patent publication US20250066499A1 (SUNSHINE GUOJIAN PHARMACEUTICAL SHANGHAI, published 2025):
# Changes are numbered by the printed parent chain.
# B1: 48A11-HuV33 (antibody, human IgG4, V domains shown)
# VH: QVQLVQSGAEVKKPGASVKVSCKASGYTFTSYWMHWVRQAPGQGLEWIGEINPSIGRTNYNEKFKSRVTLTRDTSTSTAYMELSSLRSEDTAVYYCARRVYGTMDYWGQGTLVTVSS
# VL: DIQMTQSPSSLSASVGDRVTITCKASQDINSYLSWFQQKPGKSPKLLIYRANIWVDGVPSRFSGSGSGQDYTFTISSLQPEDIATYYCLQYDELYTFGQGTKVEIK
# notes: Humanized
# How the values were obtained:
# Assay in all cases: ELISA; decline multiple of EC50 against CD73-ND
# [1] = target: T1, CD73-ND-L184A (human, UniProt P21589 27-317)
# T1 construct: Alanine mutant of CD73-ND
# T1 sequence: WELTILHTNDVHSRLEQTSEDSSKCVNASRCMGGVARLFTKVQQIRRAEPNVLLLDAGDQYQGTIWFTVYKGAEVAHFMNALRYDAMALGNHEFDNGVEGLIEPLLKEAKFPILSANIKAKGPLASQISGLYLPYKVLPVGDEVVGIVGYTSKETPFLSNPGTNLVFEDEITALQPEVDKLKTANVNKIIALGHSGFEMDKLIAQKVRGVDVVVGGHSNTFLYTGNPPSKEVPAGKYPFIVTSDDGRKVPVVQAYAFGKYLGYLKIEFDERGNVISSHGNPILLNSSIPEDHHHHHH
# Method: (§1) The ELISA plates were coated with SA protein diluted to 1.5 μg/mL in coating buffer (50 mM carbonate coating buffer, pH 9.6) and incubated overnight at 4° C. The supernatant was discarded, and the plates were washed three times with PBST. Then, 5% skimmed milk powder prepared with PBS was added for blocking and the plates were incubated for 2 h at 37° C. After washing the plates once with PBST, CD73-biotin protein (prepared by biotinylating CD73-His protein according to the EZ-Link NHS-Biotin Reagent instructions) was diluted to 0.5 μg/mL and added at 100 μL/well for incubation at room temperature for 1 h. The plates were washed three times with PBST, and the prepared murine-derived monoclonal antibodies against human CD73 were serially diluted with 1% BSA buffer prepared with PBST and added to the ELISA plates at 100 μl/well. The plates were incubated at 37° C. for 1 h. After washing the plates three times with PBST, HRP-labeled goat anti-mouse IgG secondary antibody was added and the plates were incubated for 30 min at 37° C. After washing the plates three times with PBST, the residual droplets were patted dry on absorbent paper as much as possible. Then, 100 μl of TMB color developing solution was added to each well, and the plates were incubated in the dark at room temperature for 5 min for color development. Subsequently, 50 μl of 2M H₂SO₄ stop solution was added to each well to terminate the substrate reaction. The OD values were read at 450 nm using a multimode microplate reader to analyze the binding ability of the tested antibodies to the target antigen human CD73-His.
# (§2) Referring to the experimental method in Example 3, the affinity of 48A11-HuV33 for various mutant proteins of CD73-ND was determined. The SA protein was diluted to 1 μg/mL for coating the ELISA plates, and the biotinylated CD73 protein (CD73-biotin) was used at a concentration of 0.1 μg/mL.
# [2] = target: T2, CD73-ND-P139A (human, UniProt P21589 27-317)
# T2 construct: Alanine mutant of CD73-ND
# T2 sequence: T1 sequence with P139A, A184L
# Method: as §1, §2
# [3] = target: T3, CD73-ND-V140A (human, UniProt P21589 27-317)
# T3 construct: Alanine mutant of CD73-ND
# T3 sequence: T1 sequence with V140A, A184L
# Method: as §1, §2
binder,measurement,setting,value
B1,Ratio(EC50),[1],3.4 fold
same,Ratio(EC50),[2],24.4 fold
same,Ratio(EC50),[3],0.6 fold
